# In publication doi:10.1101/2024.12.27.630498 (bioRxiv, 2024):
# B1: Arabidopsis thaliana AKT1 (Arabidopsis K+ transporter 1), construct for the structure of AKT1 alone (natural protein)
# chain: not shown
# Target: the molecule itself
# Experiment: cryo-EM structure
protein,measurement,value
B1,stoichiometry N,4
